Test results published in publication PMC12014896 (2025).
Positions count from the first letter of the chain named.

Molecular target: SARS-CoV-2 spike RBD (Wuhan-Hu-1) (Severe acute respiratory syndrome …, UniProt P0DTC2)
Assay: SPR

B1: COVIC-249 (antibody, V domains shown)
VH: QVQLVQPGGGVIQPGRSLRLSCTASGFTFSSYPMHWVRQAPGKGLEWVAVISYDGDNKYYADSVKGRFTISRDNSKNTLYLQMNSLKSDDTAMYYCARDYVVVILSDSFYYGMDVWGQGTTVTVSS
VL: QSALTQPRSVSGSPGQSVTISCTGTSSDVGGYNYVSWYQQYPGKAPKLMIYDVSKRPSGVPDRFSGSKSGNTASLTISGLQGEDEADYYCCSYAGSYTYVFGTGTKVTVL
Kd: 9.81 nM

B2: COVIC-309 (antibody, V domains shown)
VH: EVQLVESGGGLVQPGRSLRLSCAASGFTFDDYAMHWVRQAPGKGLEWVSGISWNSGSIGYADSVKGRFTISRDNAKNSLHLQMNSLRAEDTALYYCANLLTPPRRYSGYDLREDYFEYWGQGTLVTVSS
VL: SSELTQDPAVSVALGQTVRITCQGDSLRSYYASWYQQKPGQAPVLVIYDRNNRPSGIPDRFSGSSSGNTASLTITGAQAEDEADYYCHSRDSSGNPLHVVFGGGTKLTVL
Kd: 104 nM

B3: COVIC-167 (antibody, V domains shown)
VH: EVQLVESGGGLIQPGGSLRLSCAASGLTVSSNYMSWVRQAPGKGLEWVSIIYSGGSTYYADSVKGRFTISRDNSKNTLYLQMNSLRAEDTAVYYCARLGGYYYYGMDVWGQGTTVTVSS
VL: DIQMTQSPSSLSASVGERVTITCQASQDIRNYLNWYQKKPGKAPKLLIYDSSNLETGVPSRFSGGGSGTDFTFTISSLQPEDIATYYCQQYDNLPITFGQGTRLEIKR
Kd: 1.87 nM

B4: COVIC-311 (antibody)
chain 1: QVQLVESGGGVVQSGRSLRLSCAASGFTFSSYAMHWVRQAPGKGLEWVAVISHDGSNTYYEDSVKGRFTISRDNSKNTLHLQVNSLRVEDTAVYYCARAKGEVRYFDWAEQGGDYWGQGTLVTVSSGGGGSGGGGSGGGGQVQLVQSGAEVKKPGSSVKVSCKASGGTFGISWVRQAPGQGLEWMGRIIPILGTANHAQKFQGRVTITADKSTGTVYMELSSLRSEDTAVYYCARDGDSGSYYETLGFDYWGQGTLVTVSS
chain 2: SYELTQPPSVSVSPGQTARITCSGDALPKKYAYWYQQKSGQAPVLVIYEDSKRPSGIPERFSGSSSGTMATLTISGAQVEDEADYYCYSTDNSGDHGVFGGGTKLTVLGGGGSGGGGSGGGGQSALTQPPSASGSPGQSVTISCTGTSSDVGGYNYVSWYQQHPGKAPKLMIYEVNKRPSGVPDRFSGSKSGNTASLTVSGLQAEDEADYYCSSYAGSNNLVFGGGTKLTVL
Kd: 3.03 nM

B5: COVIC-93 (protein)
chain: MSSSSWLLLSLVAVTAAQSTIEEQVKTFLDKFNHEAEDLFYQCSLASWNYNTNITEENVQNMNNACDKWSAFLCEQSTLAQMYPLQEIQDLTVKLQLQALQQNGSCVLSEDKSKRLNTILNTMSTIYCTGKVCNPDNPQECLLLEPGLNEIMANSLDYNERLWAWESWRSEVGKQLRPLYEEYVVLKNEMARANHYEDYGDYWRGDYEVNGVDGYDYSRGQLIEDVEHTFEEIKPLYEHLHAYVRAKLMNAYPSYISPTGPLPAHLLGDMWGRFWTNLYSLTVPFGQKPNIDVTDAMVDQAWDAQRIFKEAEKFFVSVGLPNMTQGFWENSMLTDPGNGQKVCCYPTAWDLGKGDFRILMCTKVTMDDFLTAHHEMGHIQYDMAYAAQPFLLRNGANEGFHEAVGEIMSLSAATPKHLKSIGLLSPDFQEDNETEINFLLKQALTIVGTLPFTYMLEKWRWMVFKGEIPKDQWMKKWWEMKREIVGVVEPVPHDETYMDPASLFHVSNDYSFIRYYTRTLYQFQFQEALCQAAKHEGPLHKCDISNSTEAGQKLFNMLRLGKSEPWTLALENVVGAKNMNVRPLLNYFEPLFTWLKDQNKNSFVGWSTDWSPYADQSIKVRISLKSALGDKAYEWNDNEMYLFRSSVAYAMRQYFLKVKNQMILFGEEDVRVANLKPRISFNFFVTAPKNVSDITPRTEVEKAIRMSRSRINDCFRLNDNSLEFLGIQPTLGPPNQPPVECPPCPAPPVAGPSVFLFPPKPKDTLMISRTPEVTCVVVDVSHEDPEVQFNWYVDGVEVHNAKTKPREEQFNSTFRVVSVLTVVHQDWLNGKEYKCKVSNKGLPAPIEKTISKTKGQPREPQVYTLPPSREEMTKNQVSLTCLVKGFYPSDISVEWESNGQPENNYKTTPPMLDSDGSFFLYSKLTVDKSRWQQGNVFSCSVLHEALHSHYTQKSLSLSPGK
Kd: 0.431 nM

B6: COVIC-149 (antibody, V domains shown)
VH: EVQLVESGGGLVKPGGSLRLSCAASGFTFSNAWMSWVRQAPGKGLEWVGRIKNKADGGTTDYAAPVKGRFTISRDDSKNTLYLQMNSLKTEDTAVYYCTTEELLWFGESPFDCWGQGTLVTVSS
VL: DIQLTQSPSFLSASVGDRVTITCWASQGINSYLAWYQQKPGKAPKLLIYAASTLQSGVPSRFSGSGSGTEFTLTISSLQPEDFTTYYCQQFNDYPRTFGPGTKVEIKR
Kd: 22.3 nM

B7: COVIC-160 (antibody, V domains shown)
VH: EVQLVESGGGLIQPGGSLRLSCAASGVTVSSNYMSWVRQAPGKGLEWVSVIYSGGSTFYADSVKGRFTISRDNSKNTLYLQMNSLRAEDTAVYYCARDLSYYGMDVWGQGTTVTVSS
VL: B6 VL with N30S, R61K, T84A, F91L, D93S, R96C, T97S, P100Q, V104L
Kd: 14.7 nM

B8: COVIC-164 (antibody, V domains shown)
VH: B7 VH with S25A, V27L, S35N, A40V, F58Y, S100G, Y101T, Y102L
VL: B6 VL with N30S, S31T, T84A, F91L, D93S, P95L, R96P, P100Q
Kd: 2.25 nM

B9: COVIC-385 (antibody, V domains shown)
VH: EVQLVESGGGLVQPGGSLRLSCKASGISVAPHAVTWVRQAPGKGLEWIGVIASNADTYYASWAKGRFTISRDNSKNTLYLQMNSLRAEDTAVYYCARHPGSAGYGYTYYYAMDPWGQGTLVTVSS
VL: DIQMTQSPSSLSASVGDRVTITCQASERVFYGIDWYQQKPGKAPKLLIYGASALWHGVPSRFSGSGSGTDYTLTISSLQPEDFATYYCQQGYMVPIGFGGGTKVEIK
Kd: 0.0327 nM

B10: COVIC-172 (antibody, V domains shown)
VH: QVQLVESGGDVVQPGRSLRLSCAASGFTFSRYGMHWVRQAPGKGLEWVAVISYDGSDKYYADSVKGRFTISRDNSKNTLYLQMNSLRAEDTAVYYCAKQLPLYYYYYGMDVWGQGTTVTVSS
VL: AIQLTQSPSSLSASVGDRVTITCRASQGISSALAWYQQKPGKAPNLLIYDASSLESGVPSRFSGSGSGTDFTLTISSLQPEDFATYYCQQFNIYPHTFGPGTKVDIKR
Kd: 9.47 nM

B11: COVIC-140 (antibody, V domains shown)
VH: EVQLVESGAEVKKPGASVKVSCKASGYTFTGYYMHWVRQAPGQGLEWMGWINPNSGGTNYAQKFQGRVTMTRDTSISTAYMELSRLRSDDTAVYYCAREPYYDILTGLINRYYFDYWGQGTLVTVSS
VL: QSALTQPASVSGSPGQSITISCTGTSSDVGGYNFVSWYQQHPGKAPKLMIYEVSNRPSGVSNRFSGSKSGNTASLTISGLQAEDEADYYCSSYTSSSTRVFGGGTKLTVL
Kd: 190 nM

B12: COVIC-142 (antibody, V domains shown)
VH: EVQLVESGGGLIQPGGSLRLSCAASGFTVSSNYMSWVRQAPGKGLEWVSVIYSGGSTYYADSVKGRFTISRDNSKNTLYLQMNSLRAEDTAVYYCARHITMVRGVIIYLKEWGQGTLVTVSS
VL: DIVMTQSPSSLSASVGDRVTITCQASQDISNYLNWYQQKPGKAPKLLIYDASNLETGVPSRFSGSGSGTDFTFTISSLQPEDIATYYCQQCDNLPITFGQGTRLEIK
Kd: 16.5 nM

B13: COVIC-306 (antibody, V domains shown)
VH: QVQLVESGGGLVKPGGSLRLSCAASGFTVGSNYMSWVRQAPGKGLEWVSVIYSGGSTYYADSVKGRFTISRDNSKNTLYLQMNSLRAEDTAVYYCARGSSGAWYFDLWGRGTLVTVSS
VL: EIVMTQSPSSLSASVGDSVTITCQASQDISNYLNWYQQKPGKAPKLLIYDASNLETGVPSRFSGGGSGTDFTLTITSLQPEDIATYYCQQYDNFPPTFGPGTKVDIKR
Kd: 26.3 nM

B14: COVIC-131 (antibody, V domains shown)
VH: EVQLVESGGGVVQPGRSLRLSCAASAFTFSSYDMHWVRQAPGKGLEWVAVISYDGSNKYYADSVKGRFTISRDNSKNTLYLQMNSLRAEDTAVYYCAKDGGKLWVYYFDYWGQGTTVTVSS
VL: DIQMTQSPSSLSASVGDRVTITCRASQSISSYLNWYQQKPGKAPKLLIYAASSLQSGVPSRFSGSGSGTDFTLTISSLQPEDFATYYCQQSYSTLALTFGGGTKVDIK
Kd: 2.05 nM

B15: COVIC-64 (antibody)
chain: QVQLQESGGGLVQAGGSLRLSCAASGRTFSEYAMGWFRQAPGKEREFVATISWSGGSTYYTDSVKGRFTISRDNAKNTVYLQMNSLKPDDTAVYYCAAAGLGTVVSEWDYDYDYWGQGTQVTVSSGGSGGSQVQLQESGGGLVQAGGSLRLSCVASGSIFSINAMDWYRQAPGKQRELVAGITSGGSTNYGDFVKGRFTISRDNAKNTVYLQMDSLKPEDTAVYYCAAEVGGWGPPRPDYWGHGTQVTVSSGGGGSGGGGSKKKPLDGEYFTLQIRGRERFEMFRELNEALELKDAQAGKEPG
Kd: 169 nM

B16: COVIC-367 (antibody, V domains shown)
VH: EVQLVESGGGLVQPGRSLRLSCAASGFTFDDYAMHWVRQAPGKGLEWVSGVSWNSGTIGYADSVKGRFIISRDNAKNSLYLQMRSLRAEDTALYYCAKDVSVYRFREQSYGMDVWGQGTTVTVLS
VL: QSALTQSASVSGSPGQSITISCTGTSSDIGGYNFVSWYQQHPGKAPKLMIYEVTTRPSGVSNRFSGSKSGNTASLTISGLQAEDEADYYCSSYTSSSLVVFGGGTKLALLG
Kd: 0.0301 nM

B17: COVIC-391 (antibody, V domains shown)
VH: QVQLVQSGAEVKKPGSSVKVSCKASGGTFSSYVINWVRQAPGQGLEWMGGIIPTLGTTNYAQKFQGRVTITADKSTSTAYMELSSLRSEDTAVYYCARAGGYSGSGSNYYMDVWGKGTTVTVSS
VL: QSVLTQPPSVSGAPGQRVTISCTGSSSNIGAGYDVHWYQQLPGTAPKLLIYANNNRPSGVPDRFSGSNSGTSASLAITGLQAEDEADYYCQSYDSSLSDSVFGGGTKLTVL
Kd: 0.0198 nM

B18: COVIC-129 (antibody)
chain 1: QVQLQESGGGLVQAGGSLRLSCAASGRTFSEYAMGWFRQAPGKEREFVATISWSGGSTYYTDSVKGRFTISRDNAKNTVYLQMNSLKPDDTAVYYCAAAGLGTVVSEWDYDYDYWGQGTQVTVSSGGSGGSQVQLQESGGGLVQAGGSLRLSCAASGRTFSEYAMGWFRQAPGKEREFVATISWSGGSTYYTDSVKGRFTISRDNAKNTVYLQMNSLKPDDTAVYYCAAAGLGTVVSEWDYDYDYWGQGTQVTVSSGGGGSGGGGSASTKGPSVFPLAPSSKSTSGGTAALGCLVKDYFPEPVTVSWNSGALTSGVHTFPAVLQSSGLYSLSSVVTVPSSSLGTQTYICNVNHKPSNTKVDKKVEPKSCDKTHTCPPCPAPELLGGKKKPLDGEYFTLQIRGRERFEMFRELNEALELKDAQAGKEPG
chain 2: QVQLQESGGGLVQAGGSLRLSCAASGRTFSEYAMGWFRQAPGKEREFVATISWSGGSTYYTDSVKGRFTISRDNAKNTVYLQMNSLKPDDTAVYYCAAAGLGTVVSEWDYDYDYWGQGTQVTVSSGGSGGSQVQLQESGGGLVQAGGSLRLSCAASGRTFSEYAMGWFRQAPGKEREFVATISWSGGSTYYTDSVKGRFTISRDNAKNTVYLQMNSLKPDDTAVYYCAAAGLGTVVSEWDYDYDYWGQGTQVTVSSGGGGSGGGGSKRTVAAPSVFIFPPSDEQLKSGTASVVCLLNNFYPREAKVQWKVDNALQSGNSQESVTEQDSKDSTYSLSSTLTLSKADYEKHKVYACEVTHQGLSSPVTKSFNRGEC
Kd: 135 nM
